Assays:
[1] = molecular target: T1, recombinant human RAGE Fc chimera (human, UniProt Q15109 23-342); experiment: SPR; Biacore X100, 25 °C, 30 µL/min; 7200 RU of RAGE Fc chimera amine-coupled to a CM5 chip; S100A12 samples injected (180 s association, 180 s dissociation); HBS-P (10 mM HEPES, 150 mM NaCl, 0.05% surfactant 20, pH 7.4) with 500 µM CaCl2 and 10 µM ZnCl2; reference cell subtracted; response given relative to the unincubated negative control; conditions: both partners purified
T1 construct: receptor for advanced glycation end-products (RAGE), human; No catalogue number is printed; also called receptor for advanced glycation end-products; recombinant RAGE; source: bought: R&D Systems, from a mouse myeloma cell line
T1 sequence (Q15109 23-342, change not shown): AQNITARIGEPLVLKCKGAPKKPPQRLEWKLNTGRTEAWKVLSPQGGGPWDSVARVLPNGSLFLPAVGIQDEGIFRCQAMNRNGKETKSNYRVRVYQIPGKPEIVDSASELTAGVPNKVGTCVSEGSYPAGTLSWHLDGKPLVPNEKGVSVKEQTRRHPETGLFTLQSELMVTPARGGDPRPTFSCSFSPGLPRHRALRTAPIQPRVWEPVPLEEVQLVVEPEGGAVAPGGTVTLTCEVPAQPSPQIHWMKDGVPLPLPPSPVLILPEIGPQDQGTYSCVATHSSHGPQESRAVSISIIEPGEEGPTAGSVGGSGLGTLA

[2] = molecular target: the molecule itself; experiment: SEC; data not shown; Superdex 75 10/300 GL, 10 mM Tris-HCl, 150 mM NaCl, 500 µM CaCl2, 10 µM ZnCl2, pH 7.4
[3] = molecular target: the molecule itself; experiment: SEC; Superdex 75 10/300 GL, 10 mM Tris-HCl, 150 mM NaCl, 500 µM CaCl2, 10 µM ZnCl2, pH 7.4, 0.6 mL/min; calibrated with bovine serum albumin, carbonic anhydrase, cytochrome C and aprotinin

B1: CEL-S100A12 prepared with 3 mM pyruvate (natural protein, UniProt P80511 1-92, looked up)
chain: MTKLEEHLEGIVNIFHQYSVRKGHFDTLSKGELKQLLTKELANTIKNIKDKAVIDEIFQGLDANQDEQVDFQEFISLVAIALKAAHYHTHKE
modifications: N-epsilon-carboxyethyllysine (CEL) on all lysine residues; carboxyethylated N-terminus; no arginine modifications (CEL rate equal to or higher than in all MGO-modified samples)
notes: S100A12 as in m1, CEL-modified by reductive amination; Heterogeneous mixture; the extent of modification is not quantified; also called CEL-modified S100A12 (3 mM pyruvate); source: E. coli One Shot BL21 (DE3), purified; reductive amination with 3 mM pyruvate and NaBH3CN at 25 °C for 16 h, excess reagent removed by ultrafiltration
percent binding (of the control) [1]: 80.9%
stoichiometry N [2]: 6

B2: S100A12 incubated with 4 µM MGO (natural protein, UniProt P80511 1-92, looked up)
chain: MTKLEEHLEGIVNIFHQYSVRKGHFDTLSKGELKQLLTKELANTIKNIKDKAVIDEIFQGLDANQDEQVDFQEFISLVAIALKAAHYHTHKE
modifications: hydroimidazolone (+54 Da) and MGO-hemiaminal/CEA (+72 Da) at R21 (partial, low modification degree)
notes: S100A12 as in m1, chemically modified with methylglyoxal; Heterogeneous mixture of modified and unmodified chains; also called MGO-modified S100A12 (4 µM MGO); source: E. coli One Shot BL21 (DE3), purified; incubated with 4 µM methylglyoxal at 37 °C for 1, 3 or 7 days, excess reagent removed by ultrafiltration
stoichiometry N [2]: 6

B3: S100A12 incubated with 4 mM MGO (natural protein, UniProt P80511 1-92, looked up)
chain: MTKLEEHLEGIVNIFHQYSVRKGHFDTLSKGELKQLLTKELANTIKNIKDKAVIDEIFQGLDANQDEQVDFQEFISLVAIALKAAHYHTHKE
modifications: hydroimidazolone, MGO-hemiaminal/CEA, argpyrimidine and tetrahydropyrimidine at R21; CEL at K3, K30, K34, K39, K46, K49, K51, K83, K91; carboxyethylation of the N-terminus; a +126 Da modification not assigned to a residue
notes: S100A12 as in m1, chemically modified with methylglyoxal; no signal of the native protein left in MALDI-TOF-MS; By SEC only a small part was hexamer; also called MGO-modified S100A12 (4 mM MGO); MGO-S100A12; source: E. coli One Shot BL21 (DE3), purified; incubated with 4 mM methylglyoxal at 37 °C for 1, 3 or 7 days, excess reagent removed by ultrafiltration
stoichiometry N [3]: 6

B4: CEL-S100A12 prepared with 600 µM pyruvate (natural protein, UniProt P80511 1-92, looked up)
chain: MTKLEEHLEGIVNIFHQYSVRKGHFDTLSKGELKQLLTKELANTIKNIKDKAVIDEIFQGLDANQDEQVDFQEFISLVAIALKAAHYHTHKE
modifications: N-epsilon-carboxyethyllysine (CEL) on all lysine residues; carboxyethylated N-terminus; no arginine modifications (partial, modification rate rises with pyruvate)
notes: S100A12 as in m1, CEL-modified by reductive amination; Heterogeneous mixture; the extent of modification is not quantified; also called CEL-modified S100A12 (600 µM pyruvate); source: E. coli One Shot BL21 (DE3), purified; reductive amination with 600 µM pyruvate and NaBH3CN at 25 °C for 16 h, excess reagent removed by ultrafiltration
stoichiometry N [2]: 6

B5: CEL-S100A12 prepared with 30 mM pyruvate (natural protein, UniProt P80511 1-92, looked up)
chain: MTKLEEHLEGIVNIFHQYSVRKGHFDTLSKGELKQLLTKELANTIKNIKDKAVIDEIFQGLDANQDEQVDFQEFISLVAIALKAAHYHTHKE
modifications: N-epsilon-carboxyethyllysine (CEL) on all lysine residues; carboxyethylated N-terminus; no arginine modifications (highest modification rate)
notes: S100A12 as in m1, CEL-modified by reductive amination; Heterogeneous mixture; the extent of modification is not quantified; also called CEL-modified S100A12 (30 mM pyruvate); CEL-S100A12 at the highest modification rate; source: E. coli One Shot BL21 (DE3), purified; reductive amination with 30 mM pyruvate and NaBH3CN at 25 °C for 16 h, excess reagent removed by ultrafiltration
percent binding (of the control) [1]: 34%
stoichiometry N [2]: 6

B6: CEL-S100A12 prepared with 15 mM pyruvate (natural protein, UniProt P80511 1-92, looked up)
chain: MTKLEEHLEGIVNIFHQYSVRKGHFDTLSKGELKQLLTKELANTIKNIKDKAVIDEIFQGLDANQDEQVDFQEFISLVAIALKAAHYHTHKE
modifications: N-epsilon-carboxyethyllysine (CEL) on all lysine residues; carboxyethylated N-terminus; no arginine modifications (partial, modification rate rises with pyruvate)
notes: S100A12 as in m1, CEL-modified by reductive amination; Heterogeneous mixture; the extent of modification is not quantified; also called CEL-modified S100A12 (15 mM pyruvate); source: E. coli One Shot BL21 (DE3), purified; reductive amination with 15 mM pyruvate and NaBH3CN at 25 °C for 16 h, excess reagent removed by ultrafiltration
stoichiometry N [2]: 6

B7: CEL-S100A12 prepared with 300 µM pyruvate (natural protein, UniProt P80511 1-92, looked up)
chain: MTKLEEHLEGIVNIFHQYSVRKGHFDTLSKGELKQLLTKELANTIKNIKDKAVIDEIFQGLDANQDEQVDFQEFISLVAIALKAAHYHTHKE
modifications: N-epsilon-carboxyethyllysine (CEL) on all lysine residues; carboxyethylated N-terminus; no arginine modifications (partial, modification rate rises with pyruvate)
notes: S100A12 as in m1, CEL-modified by reductive amination; Heterogeneous mixture; the extent of modification is not quantified; also called CEL-modified S100A12 (300 µM pyruvate); source: E. coli One Shot BL21 (DE3), purified; reductive amination with 300 µM pyruvate and NaBH3CN at 25 °C for 16 h, excess reagent removed by ultrafiltration
stoichiometry N [2]: 6

B8: S100A12 incubated with 400 µM MGO (natural protein, UniProt P80511 1-92, looked up)
chain: MTKLEEHLEGIVNIFHQYSVRKGHFDTLSKGELKQLLTKELANTIKNIKDKAVIDEIFQGLDANQDEQVDFQEFISLVAIALKAAHYHTHKE
modifications: hydroimidazolone, MGO-hemiaminal/CEA, argpyrimidine and tetrahydropyrimidine at R21; CEL at K3, K30, K34, K39, K46, K49, K51, K83, K91; carboxyethylation of the N-terminus (partial)
notes: S100A12 as in m1, chemically modified with methylglyoxal; Heterogeneous mixture; by SEC a minor part was not present as hexamer; also called MGO-modified S100A12 (400 µM MGO); source: E. coli One Shot BL21 (DE3), purified; incubated with 400 µM methylglyoxal at 37 °C for 1, 3 or 7 days, excess reagent removed by ultrafiltration
stoichiometry N [3]: 6

B9: S100A12 incubated with 40 µM MGO (natural protein, UniProt P80511 1-92, looked up)
chain: MTKLEEHLEGIVNIFHQYSVRKGHFDTLSKGELKQLLTKELANTIKNIKDKAVIDEIFQGLDANQDEQVDFQEFISLVAIALKAAHYHTHKE
modifications: hydroimidazolone, MGO-hemiaminal/CEA, argpyrimidine and tetrahydropyrimidine at R21; CEL at K3, K30, K34, K39, K49, K83, K91; carboxyethylation of the N-terminus (partial)
notes: S100A12 as in m1, chemically modified with methylglyoxal; Heterogeneous mixture of modified and unmodified chains; also called MGO-modified S100A12 (40 µM MGO); source: E. coli One Shot BL21 (DE3), purified; incubated with 40 µM methylglyoxal at 37 °C for 1, 3 or 7 days, excess reagent removed by ultrafiltration
stoichiometry N [2]: 6

B10: recombinant S100A12 (natural protein, UniProt P80511 1-92, looked up)
chain: MTKLEEHLEGIVNIFHQYSVRKGHFDTLSKGELKQLLTKELANTIKNIKDKAVIDEIFQGLDANQDEQVDFQEFISLVAIALKAAHYHTHKE
notes: N-terminal methionine only partially removed (M1S100A12 predominant); Mixture of chains with and without M1; The controls incubated without reagent are written as this molecule; also called M1S100A12; unincubated negative control; source: E. coli One Shot BL21 (DE3), purified (chitin column, on-column intein cleavage with DTT, dialysis, NAP-5)
stoichiometry N [3]: 6

From paper PMC4245128, “Influence of Nonenzymatic Posttranslational Modifications on Constitution, Oligomerization and Receptor Binding of S100A12” (PLoS ONE, 2014)
